How the values were obtained:
[1] = biological target: solubilized, full length GCGR, biotinylated (from baculovirus particles) (Homo sapiens (Human)) (UniProt P47871); experiment: Octet BLI kinetics, biotinylated solubilized full length GCGR on streptavidin tips, Fab in solution
[2] = biological target: T1, GCGR (glucagon receptor) on primary human hepatocytes (human, UniProt P47871 26-477); experiment: competition with 3 nM 125I-glucagon on primary human hepatocytes, gamma counting
T1 construct: Endogenous receptor on primary human hepatocytes (Celsis)
T1 sequence (P47871 26-477 limits assumed): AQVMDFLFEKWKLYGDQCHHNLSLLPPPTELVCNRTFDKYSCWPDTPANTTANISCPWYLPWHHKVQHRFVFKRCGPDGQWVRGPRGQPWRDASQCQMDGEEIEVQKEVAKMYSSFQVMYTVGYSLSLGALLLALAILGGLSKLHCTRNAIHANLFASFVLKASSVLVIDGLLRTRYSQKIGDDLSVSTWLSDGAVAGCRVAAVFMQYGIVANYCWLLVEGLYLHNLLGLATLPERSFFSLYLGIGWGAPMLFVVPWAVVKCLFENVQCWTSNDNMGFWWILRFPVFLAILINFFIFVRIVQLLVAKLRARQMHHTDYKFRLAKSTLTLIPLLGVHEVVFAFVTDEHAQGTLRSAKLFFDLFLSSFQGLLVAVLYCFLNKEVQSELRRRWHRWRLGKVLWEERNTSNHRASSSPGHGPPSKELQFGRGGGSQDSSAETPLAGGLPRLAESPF

Chain of solubilized, full length GCGR, biotinylated (from baculovirus particles) (Homo sapiens (Human)) (P47871 26-477): as the sequence (P47871 26-477 limits assumed) above

| fold increase in affinity (Kd) over H6.23v2 [1] [fold] | binding result [2] | Binder |
| --- | --- | --- |
| 3 | – | H6.23v3 Fab fragment (Fab, V domains shown) VH: EVQLVESGGGLVQPGGSLRLSCAASGFNIYYNYIHWVRQAPGKGLEWVAEFSPYSGSTYYADSVKGRFTISADTSKNTAYLQMNSLRAEDTAVYYCARSAAIVDWYDYFKGFDYWGQGTLVTVSS VL: DIQMTQSPSSLSASVGDRVTITCRASQSVSSAVAWYQQKPGKAPKLLIYSASSLYSGVPSRFSGSRSGTDFTLTISSLQPEDFATYYCQQYGSYLYTFGQGTKVEIK |
| – | binds | anti-GCGR antibody H6.23v3 (antibody, V domains shown) VH: EVQLVESGGGLVQPGGSLRLSCAASGFNIYYNYIHWVRQAPGKGLEWVAEFSPYSGSTYYADSVKGRFTISADTSKNTAYLQMNSLRAEDTAVYYCARSAAIVDWYDYFKGFDYWGQGTLVTVSS VL: DIQMTQSPSSLSASVGDRVTITCRASQSVSSAVAWYQQKPGKAPKLLIYSASSLYSGVPSRFSGSRSGTDFTLTISSLQPEDFATYYCQQYGSYLYTFGQGTKVEIK |

Source: patent WO2013059531A1 (dated 2013)
